According to patent publication US20140148396A1:

Molecular target: EMMPRIN in mouse aortic endothelial cells (MAEC) (mouse) (UniProt P18572)
Test: cell-based or functional assay

- reduction of MMP-9 in mice compared to the IgG control: > 50%
Substance: anti-EMMPRIN antibody (rat-anti-mouse-EMMPRIN, OX114 clone)
